Laboratory results from paper doi:10.1101/2022.10.06.511153 (bioRxiv, 2022).

B1: MksG (6xHis-SUMO construct for crystallization) (natural protein, Corynebacterium glutamicum)
chain: MPLFIDDALHRSKKYFHAHLSELLLGEFAGLSLPLHPPTAAKAAADIDATREFIRQWEGRDDVEYAIRNWSPVGLGKTEVPVRLTLNTTEELVVFAQVEDEWSSLHERFSQLSGFTAEVVAKHVSLWRSLSNDDLSKAVLVVDWFLKHPNSGLLKRAVAVEGVHTKWLENHRVLIETLVADKRGEPGRADLGLGDAEARVRLRFHSVDAPAGLTDIEVPLSNLCELQEPQVILMVENLDSFLALPTWPGVTIAWGAGYRAVDIVRGPYFSNGRLLYWGDLDLDGFKILDGVRSHVPHTESVLMNSETVSRWRYLGVADREFKAESFDNLHDFESDALDLLITDGELRIEQERIRLDVAVEEIEKVIRG

Tests used:
[1] = biological target: MksE (Corynebacterium glutamicum) (UniProt Q8NLY1); test: BLI
[2] = biological target: MksB (Corynebacterium glutamicum) (UniProt Q8NLY2); test: BLI
crystal structure = biological target: the molecule itself; test: crystal structure

| Molecule | Kd [1] [µM] | Kd [2] [µM] | stoichiometry N (crystal structure) |
| --- | --- | --- | --- |
| MksF (from UniProt Q8NLY0 1-495) (natural protein) | 2.17 | 4.94 | – |
| B1 | – | – | 2 |
